Measurements reported in the supplement of paper PMC10201428.
± gives the standard deviation of the averaged measurements.

B1: library; a variant is named by its letters at N, in order (parent)
chain: AATGTTGTTGATGCAACCATAAAGTGATATTTAATAATTATTTATAATCAGCAACTTAACCACAAAACAACCATATATTGATATNTCACAAAACAACCATAANTTGATATTTTTGTGAATCGAGTATTTCAGCAAAACTACTGCAGTAAGAA

Legend:
[1] = variants of: B1; assay: relative integration efficiency (T-LR orientation) vs wild-type transposon end (log2 (normalized fold change)); transposon end mutated: left end; higher = more efficient transposition; details: with VchCAST RNA-guided transposition machinery (E. coli BL21(DE3) host, lacZ target)
Procedure: (§1)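 Pooled, barcoded VchCAST (Tn6677) mini-transposon donor libraries; each variable transposon-end sequence sits in a fixed pDonor mini-transposon context (10-bp barcode and cargo not included). Left- or right-end libraries were co-transformed with pEffector (TniQ-Cascade, TnsABC, lacZ crRNA, T7, 0.1 mM IPTG) into E. coli BL21(DE3) and grown 18 h at 37 C. T-LR and T-RL junction amplicons were sequenced; output/input barcode fold change was normalised to the mean of four wild-type barcodes and log2-transformed. Two biological replicates; zero-count/undetected variants carry floor values (-10 / -15), censored here. Barcode uncoupling by PCR recombination adds noise.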

[2] = variants of: B1; assay: relative integration efficiency (T-RL orientation) vs wild-type transposon end (log2 (normalized fold change)); transposon end mutated: left end; higher = more efficient transposition; details: with VchCAST RNA-guided transposition machinery (E. coli BL21(DE3) host, lacZ target)
Procedure: as §1

Variant	relative integration efficiency (log2) [1]	relative integration efficiency (log2) [2]
AATGTTGTTGATGCAACCATAAAGTGATATTTACCGACTGTCTGCCATCAGCAACTTAACCGCAGCACAACCATATATTGATATCTCACAAAACAACCATAAGTTGATATTTTTGTGAATCGAGTATTTCAGCAAAACTACTGCAGTAAGAA [CG A34C T35C A36G T38C A40G T42C A44G T45C A46C A62G A65G A66C]	-1.11 ± 0.2	-1.33 ± 0.56
AATGTTGTTGATGCAACCATAAAGTGATATTTAATAATTATTTATAATCAGCAACTTAACCACAAAACAACCATATATTGATATCTCACAAAACTTCCATAAGTTGATATTTTTGTGAATCGAGTATTTCAGCAAAACTACTGCAGTAAGAA [CG A95T A96T]	-0.891 ± 0.57	-0.379 ± 0.28
AATGTTGTTGATGCAACCATAAAGTGATAAAATATAATTATTTATAATCAGCAACTTAACCACAAAACAACCATATATTGATATCTCACAAAACAACCATAAGTTGATATTTTTGTGAATCGAGTATTTCAGCAAAACTACTGCAGTAAGAA [CG T30A T31A T32A A33T]	-0.351 ± 0.54	-0.346 ± 0.29
AATGTTGTTGATGCAACCATAAAGTGATATTTAATAATTATTTATAAACAGCAACTTAACCACAAAACAACCATATATTGATATCTCACAAAACAACCATAAGTTGATATTTTTGTGAATCGAGTATTTCAGCAAAACTACTGCAGTAAGAA [CG T48A]	0.212 ± 0.68	0.162 ± 0.22
AATGTTGTTGATGCAACCATAAAGTGATATTTAATAATTATTTATAATCAGCAACTTAACCACAAAAACCACATATATTGATATCTCACAAAACAACCATAAGTTGATATTTTTGTGAATCGAGTATTTCAGCAAAACTACTGCAGTAAGAA [CG C68A A69C A70C C71A]	-1.37 ± 0.95	-1.67 ± 0.63
AATGTTGTTGATGCAACCATAAAGTGATATTTAATAATTATTTATAATCAGCAACTTAACCACAAAACAACCATATATTGATATCTCACAAAACAACCAGAAGTTGATATTTTTGTGAATCGAGTATTTCAGCAAAACTACTGCAGTAAGAA [CG T100G]	-0.934 ± 1.6	-0.706 ± 0.73
AATGTTGTTGATGCAACCATAAAGTGATATTTAATAAGTATTTATAATCAGCAACTTAACCACAAAACAACCATATATTGATATCTCACAAAACAACCATAAGTTGATATTTTTGTGAATCGAGTATTTCAGCAAAACTACTGCAGTAAGAA [CG T38G]	0.138 ± 0.0017	-0.123 ± 0.065
AATGTTGTTGATGCAACCATAAAGTGATATTTAATAATTATTTATAATCAGGTTGTTAACCACAAAACAACCATATATTGATATCTCACAAAACAACCATAAGTTGATATTTTTGTGAATCGAGTATTTCAGCAAAACTACTGCAGTAAGAA [CG C52G A53T A54T C55G]	0.133 ± 0.24	0.0283 ± 0.2
AATGTTGTAGATGCAACCATAAAGTGATATTTAATAATTATTTATAATCAGCAACTTAACCACAAAACAACCATATATTGATATCTCACAAAACAACCATAAGTTGATATTTTTGTGAATCGAGTATTTCAGCAAAACTACTGCAGTAAGAA [CG T9A]	-0.191 ± 0.61	-0.00405 ± 0.092
AATGTTGTTGATGCAACCATAAAGTGGTATTTAATAATTATTTATAATCAGCAACTTAACCACAAAACAACCATATATTGATATCTCACAAAACAACCATAAGTTGATATTTTTGTGAATCGAGTATTTCAGCAAAACTACTGCAGTAAGAA [CG A27G]	-0.486 ± 0.47	-0.621 ± 0.35
